According to PMC10696041, “Identification of PCPE-2 as the endogenous specific inhibitor of human BMP-1/tolloid-like proteinases” (Nature Communications, 2023):

T1: bone morphogenetic protein-1 (human, UniProt P13497-2 121-730)
T1 construct: human BMP-1, the BMP-1 (BMP-1-1) splice variant of the BMP1 gene with CUB1-CUB2-EGF-CUB3 auxiliary domains; called full-length BMP-1 against the deletion mutants; also called BMP-1; BMP-1-1; source: Supplementary Methods
T1 sequence (looked up): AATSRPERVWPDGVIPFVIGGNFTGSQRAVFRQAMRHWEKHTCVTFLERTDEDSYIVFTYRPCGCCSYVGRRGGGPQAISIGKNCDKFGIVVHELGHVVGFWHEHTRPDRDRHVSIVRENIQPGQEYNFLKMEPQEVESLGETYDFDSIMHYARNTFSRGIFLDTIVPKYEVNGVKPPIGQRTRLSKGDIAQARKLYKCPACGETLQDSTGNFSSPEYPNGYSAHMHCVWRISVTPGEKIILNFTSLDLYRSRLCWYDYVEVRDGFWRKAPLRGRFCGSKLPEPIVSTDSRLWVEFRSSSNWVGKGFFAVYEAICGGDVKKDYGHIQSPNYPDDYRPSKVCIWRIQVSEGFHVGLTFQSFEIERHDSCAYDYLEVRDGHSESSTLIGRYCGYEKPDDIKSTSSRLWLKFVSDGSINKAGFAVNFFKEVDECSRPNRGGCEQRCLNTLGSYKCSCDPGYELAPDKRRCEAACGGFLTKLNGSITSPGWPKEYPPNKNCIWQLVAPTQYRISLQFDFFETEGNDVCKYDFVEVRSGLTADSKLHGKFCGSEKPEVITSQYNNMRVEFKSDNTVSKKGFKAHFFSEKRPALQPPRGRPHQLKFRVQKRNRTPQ

T2: procollagen C-proteinase enhancer 1, native form with no His tag (human, UniProt Q15113 26-449)
T2 construct: PCPE-1, native form with no His tag, used in the SPR analyses; The activity assays used another form, PCPE-1[Cter-8His]; also called PCPE-1
T2 sequence (looked up): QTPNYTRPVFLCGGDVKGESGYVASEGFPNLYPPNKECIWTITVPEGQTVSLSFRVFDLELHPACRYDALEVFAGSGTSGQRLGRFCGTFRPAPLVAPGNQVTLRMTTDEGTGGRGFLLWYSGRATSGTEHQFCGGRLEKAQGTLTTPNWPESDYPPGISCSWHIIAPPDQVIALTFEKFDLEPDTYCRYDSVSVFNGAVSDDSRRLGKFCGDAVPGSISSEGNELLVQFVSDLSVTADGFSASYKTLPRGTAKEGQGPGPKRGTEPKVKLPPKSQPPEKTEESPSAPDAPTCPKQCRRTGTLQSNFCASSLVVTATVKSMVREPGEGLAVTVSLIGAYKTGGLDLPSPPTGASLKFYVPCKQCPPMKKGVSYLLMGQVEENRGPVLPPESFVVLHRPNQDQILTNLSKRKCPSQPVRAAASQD

B1: CUB1CUB2 domains of PCPE-2 generated from PCPE-2 3C (domain or fragment, human, UniProt Q9UKZ9 24-270, looked up)
chain: QSPERPVFTCGGILTGESGFIGSEGFPGVYPPNSKCTWKITVPEGKVVVLNFRFIDLESDNLCRYDFVDVYNGHANGQRIGRFCGTFRPGALVSSGNKMMVQMISDANTAGNGFMAMFSAAEPNERGDQYCGGLLDRPSGSFKTPNWPDRDYPAGVTCVWHIVAPKNQLIELKFEKFDVERDNYCRYDYVAVFNGGEVNDARRIGKYCGDSPPAPIVSERNELLIQFLSDLSLTADGFIGHYIFRPK
notes: human PCPE-2 from its beginning to amino-acid 270; an HRV 3C-protease site was inserted between amino-acids 270 and 271 of full-length human PCPE-2; Residues of the two 3C sites are probably left on both ends after cleavage; also called the CUB domains of PCPE-2; not shown: His6, N-terminal, cleaved
B2: procollagen C-proteinase enhancer-2 with N-terminal 6His-tag (natural protein, human, UniProt Q9UKZ9 24-415, looked up)
chain: QSPERPVFTCGGILTGESGFIGSEGFPGVYPPNSKCTWKITVPEGKVVVLNFRFIDLESDNLCRYDFVDVYNGHANGQRIGRFCGTFRPGALVSSGNKMMVQMISDANTAGNGFMAMFSAAEPNERGDQYCGGLLDRPSGSFKTPNWPDRDYPAGVTCVWHIVAPKNQLIELKFEKFDVERDNYCRYDYVAVFNGGEVNDARRIGKYCGDSPPAPIVSERNELLIQFLSDLSLTADGFIGHYIFRPKKLPTTTEQPVTTTFPVTTGLKPTVALCQQKCRRTGTLEGNYCSSDFVLAGTVITTITRDGSLHATVSIINIYKEGNLAIQQAGKNMSARLTVVCKQCPLLRRGLNYIIMGQVGEDGRGKIMPNSFIMMFKTKNQKLLDALKNKQC
notes: human PCPE-2, called full-length; two mutations of the bought clone (829 G>T, 874 C>A) were corrected; The most widely used PCPE-2 construct of the study; also called PCPE-2; PCPE-2[Nter-6His]; not shown: His6, N-terminal, kept
B3: mini-procollagen III (domain or fragment)
chain: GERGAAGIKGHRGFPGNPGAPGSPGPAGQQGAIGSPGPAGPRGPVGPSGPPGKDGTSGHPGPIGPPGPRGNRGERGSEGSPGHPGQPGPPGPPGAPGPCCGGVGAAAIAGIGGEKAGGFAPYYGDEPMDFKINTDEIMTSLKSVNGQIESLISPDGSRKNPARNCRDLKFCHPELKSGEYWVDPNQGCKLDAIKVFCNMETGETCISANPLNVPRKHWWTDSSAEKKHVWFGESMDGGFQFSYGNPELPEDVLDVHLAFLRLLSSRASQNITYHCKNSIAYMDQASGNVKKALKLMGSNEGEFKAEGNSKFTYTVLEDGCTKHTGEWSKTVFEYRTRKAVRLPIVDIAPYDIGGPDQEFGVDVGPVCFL
modifications: Homotrimer. The paper does not print the limits. The start assumes the last 33 Gly-X-Y triplets (helix end at 1196), recalled from earlier descriptions of this construct, followed by the intact …

Assays:
Details in all cases: both partners purified
[1] = target: T1, bone morphogenetic protein-1; assay: SPR; BMP-1 immobilised by amine coupling on CM5 (974, 1302 or 1492 RU); 10 mM HEPES pH 7.4, 0.15 M NaCl, 5 mM CaCl2, 0.05% P20, 25 °C; PCPE-2 1.56-100 nM with steady-state fit (heterogeneous ligand model for kinetics), 50 nM for comparisons
[2] = target: T1, bone morphogenetic protein-1; assay: enzyme inhibition assay (fluorogenic peptide cleavage); apparent; 7 nM BMP-1, 20 µM Mca-YVADAPK(Dnp)-OH, PCPE-2 0.07-690 nM, 50 mM HEPES pH 7.4, 5 mM CaCl2, 0.02% βOG, 37 °C; Morrison equation for tight-binding inhibitors with a constant for partial inhibition
[3] = target: T2, procollagen C-proteinase enhancer 1, …; assay: SPR; mini-procollagen III immobilised by amine coupling on CM5 (435, 437 or 651 RU); analytes in 10 mM HEPES pH 7.4, 0.15 M NaCl, 5 mM CaCl2, 0.05% P20, 25 °C; steady-state fit for constants, 50 nM single injections for the CUB1CUB2* mutants
[4] = target: B2; assay: as above
[5] = target: B1; assay: as above

Binder: B1
binding result [1]: binds

Binder: B2
Kd [1]: 8.4 nM
Ki [2]: 2.8 nM

Binder: B3
Kd [3]: 2.2 nM
Kd [4]: 11 nM
Kd [5]: ~30 nM
